Target: T1, Aβ 1-40 peptide (UniProt P05067 672-711)
T1 construct: amyloid beta peptide Aβ 1-40, cut product of the amyloid precursor protein (APP); the methods call it a bought peptide, the results a 'recombinant peptide'; also called recombinant peptide; immobilised Aβ; source: bought: America Peptide, Sunnyvale, CA
Experiment: ELISA; Aβ1-40 peptide coated on Maxisorp plates (0.1 µg/ml, bicarbonate buffer pH 9.6); antibodies serially diluted in PBS/1 % BSA, 1 h at room temperature; detected with biotinylated anti-mouse IgG and streptavidin poly-HRP; relative affinity
Conditions: both partners purified

- EC50: 0.0174 nM
B1: mC2 (murine parent antibody of Crenezumab), recombinant with mouse IgG2a constant region (antibody, V domains shown)
VH: EVQLVESGGGLVQPGGSLKLSCAASGFTFSSYGMSWVRQTPDKRLELVASINSNGGSTYYPDSVKGRFTISRDNAKNTLYLQMSSLKSEDTAMYYCASGDYWGQGSTLTVSS
VL: DVVMTQTPLSLPVSLGDQASISCRSSQSLVYSNGDTYLHWYLQKPGQSPKLLIYKVSNRFSGVPDRFSGSGSGTDFTLKISRVEAEDLGVYFCSQSTHVPWTFGGGTKLEIKR
notes: heavy chain variable domain of mC2; mouse IgG2a heavy chain constant domain; light chain variable domain of mC2; mouse kappa light chain constant domain; mouse IgG2a, kappa; variable domain joined directly to the constant domain (synthetic genes); also called murine version of Crenezumab; Crenezumab-mC2; source: HEK293 6E cells, transient transfection (pTT5), purified from culture media …

From paper PMC4612324, “Comparing the efficacy and neuroinflammatory potential of three anti-abeta antibodies” (Acta Neuropathologica, 2015)
